Reference: PMC6018924, “Brassinosteroids regulate pavement cell growth by mediating BIN2-induced microtubule stabilization” (Journal of Experimental Botany, 2018)

Experiments:
Experiment in all cases: pull-down; GST fusion bound to GST resin in 1× PBS pH 7.4, 0.1% Triton X-100, 2 h at 4 °C; incubated with purified tubulin-His 2 h at 4 °C; western blot with anti-His antibody
Settings in all cases: both partners purified
[1] = target: T1, TUA5–His (Arabidopsis, UniProt B9DHQ0 1-450)
T1 construct: α-tubulin TUA5 of Arabidopsis, gene cloned into pET28a; also called tubulin–His; source: E. coli (Rosetta strain), purified using Ni-NTA agarose

[2] = target: T2, TUB3–His (Arabidopsis, UniProt Q9ASR0 1-450)
T2 construct: β-tubulin TUB3 of Arabidopsis, gene cloned into pET28a; also called tubulin–His; source: E. coli (Rosetta strain), purified using Ni-NTA agarose

[3] = target: T3, TUB4–His (Arabidopsis, UniProt P24636 1-444)
T3 construct: β-tubulin TUB4 of Arabidopsis, gene cloned into pET28a; also called tubulin–His; source: E. coli (Rosetta strain), purified using Ni-NTA agarose

[4] = target: T4, TUB7–His (Arabidopsis, UniProt P29515 1-449)
T4 construct: β-tubulin TUB7 of Arabidopsis, gene cloned into pET28a; also called tubulin–His; source: E. coli (Rosetta strain), purified using Ni-NTA agarose

[5] = target: T5, TUA3–His (Arabidopsis, UniProt Q56WH1 1-450)
T5 construct: α-tubulin TUA3 of Arabidopsis, gene cloned into pET28a; also called tubulin–His; source: E. coli (Rosetta strain), purified using Ni-NTA agarose

[6] = target: T6, TUA1–His (Arabidopsis, UniProt P11139 1-450)
T6 construct: α-tubulin TUA1 of Arabidopsis, gene cloned into pET28a; also called tubulin–His; source: E. coli (Rosetta strain), purified using Ni-NTA agarose

[7] = target: T7, TUB6–His (Arabidopsis, UniProt P29514 1-449)
T7 construct: β-tubulin TUB6 of Arabidopsis, gene cloned into pET28a; also called tubulin–His; source: E. coli (Rosetta strain), purified using Ni-NTA agarose

[8] = target: T8, TUB8–His (Arabidopsis, UniProt P29516 1-449)
T8 construct: β-tubulin TUB8 of Arabidopsis, gene cloned into pET28a; also called tubulin–His; source: E. coli (Rosetta strain), purified using Ni-NTA agarose

Measured: binding result

T4 sequence (P29515 whole entry): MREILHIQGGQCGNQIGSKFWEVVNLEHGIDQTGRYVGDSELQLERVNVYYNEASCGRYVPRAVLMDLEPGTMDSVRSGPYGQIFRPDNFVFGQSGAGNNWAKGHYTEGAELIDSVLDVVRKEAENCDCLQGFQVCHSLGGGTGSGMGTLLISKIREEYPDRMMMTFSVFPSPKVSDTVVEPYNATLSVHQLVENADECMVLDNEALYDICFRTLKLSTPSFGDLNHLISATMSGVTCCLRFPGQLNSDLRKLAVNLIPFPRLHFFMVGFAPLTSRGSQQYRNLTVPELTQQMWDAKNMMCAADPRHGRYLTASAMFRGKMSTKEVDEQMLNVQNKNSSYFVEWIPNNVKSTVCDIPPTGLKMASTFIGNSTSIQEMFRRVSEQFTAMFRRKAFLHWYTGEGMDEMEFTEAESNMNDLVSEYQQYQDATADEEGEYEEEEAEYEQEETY
T3 sequence (P24636 whole entry): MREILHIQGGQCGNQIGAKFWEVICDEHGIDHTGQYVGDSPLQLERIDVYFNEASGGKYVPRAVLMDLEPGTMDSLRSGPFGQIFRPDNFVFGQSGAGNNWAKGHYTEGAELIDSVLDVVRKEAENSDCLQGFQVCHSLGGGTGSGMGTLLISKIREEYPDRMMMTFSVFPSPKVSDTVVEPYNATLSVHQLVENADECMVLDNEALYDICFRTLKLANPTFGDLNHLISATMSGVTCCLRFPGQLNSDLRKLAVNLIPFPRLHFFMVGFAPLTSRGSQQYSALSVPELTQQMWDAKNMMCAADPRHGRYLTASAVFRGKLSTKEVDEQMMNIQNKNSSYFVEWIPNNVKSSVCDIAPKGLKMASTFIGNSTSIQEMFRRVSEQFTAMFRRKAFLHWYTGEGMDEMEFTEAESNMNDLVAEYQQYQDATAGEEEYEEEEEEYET
T7 sequence (P29514 whole entry): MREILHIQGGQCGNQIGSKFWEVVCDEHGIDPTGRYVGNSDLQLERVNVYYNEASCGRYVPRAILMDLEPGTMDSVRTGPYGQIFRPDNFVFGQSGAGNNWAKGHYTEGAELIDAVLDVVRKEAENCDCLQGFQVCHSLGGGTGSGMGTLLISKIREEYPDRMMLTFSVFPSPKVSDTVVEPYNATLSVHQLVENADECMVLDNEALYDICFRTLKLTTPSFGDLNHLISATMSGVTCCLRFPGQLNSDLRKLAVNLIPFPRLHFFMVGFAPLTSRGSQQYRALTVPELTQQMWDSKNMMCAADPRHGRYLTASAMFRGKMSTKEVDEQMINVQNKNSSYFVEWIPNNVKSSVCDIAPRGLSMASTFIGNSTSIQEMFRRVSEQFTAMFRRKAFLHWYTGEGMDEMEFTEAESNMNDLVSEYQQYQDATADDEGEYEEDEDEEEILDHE
T6 sequence (P11139 whole entry): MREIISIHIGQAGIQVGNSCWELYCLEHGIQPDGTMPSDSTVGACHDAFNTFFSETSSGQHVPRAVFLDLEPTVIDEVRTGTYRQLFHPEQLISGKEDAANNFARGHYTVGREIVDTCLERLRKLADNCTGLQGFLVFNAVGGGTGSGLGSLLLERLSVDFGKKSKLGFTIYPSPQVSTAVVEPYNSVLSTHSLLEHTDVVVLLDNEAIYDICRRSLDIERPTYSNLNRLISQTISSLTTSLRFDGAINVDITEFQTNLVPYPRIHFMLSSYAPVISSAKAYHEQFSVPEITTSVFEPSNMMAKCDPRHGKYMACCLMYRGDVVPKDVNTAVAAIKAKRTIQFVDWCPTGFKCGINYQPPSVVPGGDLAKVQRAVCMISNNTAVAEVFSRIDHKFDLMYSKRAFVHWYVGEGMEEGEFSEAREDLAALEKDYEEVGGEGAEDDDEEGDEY
T8 sequence (P29516 whole entry): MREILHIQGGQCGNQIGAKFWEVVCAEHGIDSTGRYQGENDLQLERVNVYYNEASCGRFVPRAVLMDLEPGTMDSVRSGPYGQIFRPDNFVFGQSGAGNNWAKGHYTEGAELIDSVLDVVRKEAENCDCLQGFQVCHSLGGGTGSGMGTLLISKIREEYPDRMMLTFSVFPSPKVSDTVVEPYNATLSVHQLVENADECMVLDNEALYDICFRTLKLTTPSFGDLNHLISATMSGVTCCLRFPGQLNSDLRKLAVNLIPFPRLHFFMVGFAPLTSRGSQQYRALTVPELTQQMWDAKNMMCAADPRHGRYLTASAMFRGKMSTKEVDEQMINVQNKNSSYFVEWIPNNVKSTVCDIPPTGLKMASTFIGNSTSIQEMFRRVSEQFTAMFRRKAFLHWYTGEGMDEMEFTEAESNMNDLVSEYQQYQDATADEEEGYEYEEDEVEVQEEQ
T5 sequence (Q56WH1 whole entry): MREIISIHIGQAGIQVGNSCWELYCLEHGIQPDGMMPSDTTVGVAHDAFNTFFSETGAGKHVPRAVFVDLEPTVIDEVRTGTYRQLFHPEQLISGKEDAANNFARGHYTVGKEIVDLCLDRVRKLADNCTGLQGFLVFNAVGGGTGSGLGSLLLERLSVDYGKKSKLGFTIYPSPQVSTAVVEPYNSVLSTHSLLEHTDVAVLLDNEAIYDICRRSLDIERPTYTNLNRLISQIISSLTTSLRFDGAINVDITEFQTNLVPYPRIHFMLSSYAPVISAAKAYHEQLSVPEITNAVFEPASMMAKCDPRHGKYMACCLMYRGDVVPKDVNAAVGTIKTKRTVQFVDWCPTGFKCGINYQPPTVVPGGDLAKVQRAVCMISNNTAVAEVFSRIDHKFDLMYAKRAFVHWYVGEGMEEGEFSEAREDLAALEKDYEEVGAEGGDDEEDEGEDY
T1 sequence (B9DHQ0 whole entry): as the sequence (Q56WH1 whole entry) above
T2 sequence (Q9ASR0 whole entry): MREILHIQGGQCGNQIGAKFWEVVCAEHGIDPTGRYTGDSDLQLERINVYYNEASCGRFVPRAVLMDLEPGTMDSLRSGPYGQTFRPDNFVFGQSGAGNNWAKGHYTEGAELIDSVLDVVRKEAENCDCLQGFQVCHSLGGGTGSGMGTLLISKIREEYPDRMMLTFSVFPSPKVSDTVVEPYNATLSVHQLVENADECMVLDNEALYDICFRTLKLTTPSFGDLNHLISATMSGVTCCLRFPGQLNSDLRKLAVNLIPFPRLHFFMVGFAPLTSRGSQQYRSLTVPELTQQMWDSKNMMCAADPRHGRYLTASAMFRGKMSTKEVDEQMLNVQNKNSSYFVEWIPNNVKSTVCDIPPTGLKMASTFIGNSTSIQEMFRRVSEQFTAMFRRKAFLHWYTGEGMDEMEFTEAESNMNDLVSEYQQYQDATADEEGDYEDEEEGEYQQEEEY

B1: GST–BIN2 (BRASSINOSTEROID …2) (enzyme, Arabidopsis, UniProt Q39011 1-380, looked up)
chain: MADDKEMPAAVVDGHDQVTGHIISTTIGGKNGEPKQTISYMAERVVGTGSFGIVFQAKCLETGETVAIKKVLQDRRYKNRELQLMRVMDHPNVVCLKHCFFSTTSKDELFLNLVMEYVPESLYRVLKHYSSANQRMPLVYVKLYMYQIFRGLAYIHNVAGVCHRDLKPQNLLVDPLTHQVKICDFGSAKQLVKGEANISYICSRFYRAPELIFGATEYTTSIDIWSAGCVLAELLLGQPLFPGENAVDQLVEIIKVLGTPTREEIRCMNPHYTDFRFPQIKAHPWHKIFHKRMPPEAIDFASRLLQYSPSLRCTALEACAHPFFDELREPNARLPNGRPFPPLFNFKQEVAGSSPELVNKLIPDHIKRQLGLSFLNQSGT
notes: BRASSINOSTEROID …2 (BIN2), GSK3-like kinase of Arabidopsis, 380 aa; also called BIN2–GST; source: E. coli (Rosetta strain), purified using glutathione resin
binds: all assays above
